The record followed here is patent US20140179896A1 (published 2014).

One may read the Kd as the constant that tells how readily two partners part at equilibrium.

The target of assay [1] is T1, mouse vascular endothelial growth factor receptor-2 Fc chimera (Flk-1-Fc) (mouse, UniProt P35918 20-762).
T1 construct: Purchased from R&D Systems; also called mouse VEGF-R2; not shown: Fc part of the purchased chimera
As to the kind of experiment: radioactive equilibrium binding assay with VEGFR-2-Fc chimeras (FIG. 4). As to the method:
To prepare ³⁵S-labeled binding proteins for analysis, mRNA was prepared as described above for RNA-protein fusion production but the linker ligation step was omitted. The mRNA was expressed using rabbit reticulocyte lysate translation kit (Ambion) in the presence of ³⁵S-labeled Met at 30° C. for 1 hour. Expressed protein was purified on M2-agarose Flag beads (Sigma) as described above. This procedure produced the encoded protein without the nucleic acid tail. […] of the reaction mixture and elution were dried onto a LumaPlate-96 (Packard) and the amount of ³⁵S on the plate was measured using a TopCount NXT instrument (Packard). The amount of fibronectin-based scaffold protein bound to the target was estimated as a percent of radioactivity eluted from Protein A magnetic beads compare to radioactivity in the reaction mixture. Nonspecific binding of fibronectin-based scaffold proteins to the beads was determined by measuring binding in the absence of KDR-Fc and represented less than 1-2% of the input. […] Data was analyzed using the GraphPad Prizm software (GraphPad Software, Inc, San Diego, Calif.), fitted using a one site, non-linear binding equation.

For assay [2], the target named is T2, human vascular endothelial growth factor receptor-2 Fc chimera (KDR-Fc) (human, UniProt P35968 20-764).
T2 construct: range 1-764; also called human VEGFR-2; hKDR; not shown: human IgG1 Fc
As to the kind of experiment: radioactive equilibrium binding (assay not given).

Assay [3] has as its target T2, human vascular endothelial growth …. As to the kind of experiment: binding to 1 nM KDR-Fc, % of input; radioactive equilibrium binding (assay not given). The gist of the method:
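Tracer: ³⁵S-Met protein from reticulocyte lysate, Flag-bead purified, no nucleic acid tail. 0.2/0.5 nM binder + 0–200 nM receptor-Fc, 30° C 1 h, buffer B; Protein A bead capture 10 min RT; 0.1 M KOH elution; scintillation count.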

T2 sequence (P35968 20-764 limits assumed, change not shown, form in doubt): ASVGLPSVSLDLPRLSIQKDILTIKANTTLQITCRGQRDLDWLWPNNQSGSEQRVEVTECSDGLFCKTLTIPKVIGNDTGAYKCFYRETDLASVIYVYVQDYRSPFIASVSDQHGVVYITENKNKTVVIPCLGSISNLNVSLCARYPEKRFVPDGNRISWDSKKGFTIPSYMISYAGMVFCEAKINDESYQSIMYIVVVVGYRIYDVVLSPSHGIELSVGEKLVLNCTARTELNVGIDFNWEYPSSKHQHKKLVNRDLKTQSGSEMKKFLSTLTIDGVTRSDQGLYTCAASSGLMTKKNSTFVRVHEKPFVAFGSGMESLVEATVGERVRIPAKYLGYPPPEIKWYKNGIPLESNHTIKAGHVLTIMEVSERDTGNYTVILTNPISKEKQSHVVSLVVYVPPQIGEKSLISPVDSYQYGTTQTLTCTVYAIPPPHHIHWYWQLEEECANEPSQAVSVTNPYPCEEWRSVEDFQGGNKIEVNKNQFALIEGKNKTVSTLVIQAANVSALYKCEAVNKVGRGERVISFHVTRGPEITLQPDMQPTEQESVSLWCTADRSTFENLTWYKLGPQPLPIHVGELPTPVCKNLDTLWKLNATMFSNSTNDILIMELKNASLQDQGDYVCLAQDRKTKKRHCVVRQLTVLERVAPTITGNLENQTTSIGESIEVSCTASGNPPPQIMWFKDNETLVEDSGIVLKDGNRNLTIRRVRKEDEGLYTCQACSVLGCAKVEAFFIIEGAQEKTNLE
T1 sequence (P35918 20-762, change not shown): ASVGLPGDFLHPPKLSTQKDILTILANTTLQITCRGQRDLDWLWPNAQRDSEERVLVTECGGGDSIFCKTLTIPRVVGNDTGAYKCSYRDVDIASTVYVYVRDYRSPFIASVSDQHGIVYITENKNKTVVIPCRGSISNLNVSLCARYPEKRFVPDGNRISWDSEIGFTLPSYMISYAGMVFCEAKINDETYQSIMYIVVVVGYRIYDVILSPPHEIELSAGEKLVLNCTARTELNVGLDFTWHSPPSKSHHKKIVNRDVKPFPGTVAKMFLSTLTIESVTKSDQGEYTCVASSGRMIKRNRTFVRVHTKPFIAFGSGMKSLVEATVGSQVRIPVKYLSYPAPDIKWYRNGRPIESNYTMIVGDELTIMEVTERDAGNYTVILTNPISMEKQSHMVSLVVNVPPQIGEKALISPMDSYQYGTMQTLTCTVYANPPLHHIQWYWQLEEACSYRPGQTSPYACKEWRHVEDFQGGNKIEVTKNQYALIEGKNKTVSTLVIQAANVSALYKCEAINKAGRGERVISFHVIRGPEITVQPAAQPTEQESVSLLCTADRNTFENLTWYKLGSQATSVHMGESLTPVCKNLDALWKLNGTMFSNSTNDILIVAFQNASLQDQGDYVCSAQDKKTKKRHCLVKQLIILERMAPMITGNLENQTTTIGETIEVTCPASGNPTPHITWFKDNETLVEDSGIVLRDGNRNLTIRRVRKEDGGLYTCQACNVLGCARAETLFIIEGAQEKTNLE

B1: VR28 (designed binder)
chain: VSDVPRDLEVVAATPTSLLISWRHPHFPTRYYRITYGETGGNSPVQEFTVPLQPPTATISGLKPGVDYTITGYAVTVAQNDHELITPISINYRT
notes: 10Fn3 clone with WT N-terminus; tag not included; also called VR28 (I69T); VR28 clone
Turning to B1, in assay [1], the binding result is “no binding”. Besides, the Kd in assay [2] was determined as 11 nM. The “Binding to 1 nM KDR, %” value in assay [3] turned out to be 3%.
